Data on eleven molecules can be found in US20070027089A1 (POSCO, published 2007).

Where no end group is shown, it is not given here. The star is where a group is joined. Biotin = O=C1N[C@H]2[C@H](CS[C@H]2CCCCC(=O)*)N1; Dnp = O=[N+]([O-])c1ccc(*)c([N+](=O)[O-])c1; Mca = COc1ccc2c(CC(=O)*)cc(=O)oc2c1

Experiment [1] deals with T1, f-Sub M (7-methoxycoumarin-4-acetyl-SEVNLDAEFRK(Dnp)-RR-NH2).
T1 peptide: Mca-SEVNLDAEFRK(Dnp)RR-NH2
Description: cell-based or functional assay.

Experiment [2] concerns the target T2, biotin-labeled Substrate M.
T2 construct: also called bio-Sub M; N-terminally biotinylated Substrate M
T2 peptide: Biotin-SEVNLDAEFR
Kind of experiment: plate assay: HC peptide chemically coupled to plate, bio-Sub M, Str-HRP, A450 (Table 1). As for the experimental part: (§1) Reacti-BindTM maleic anhydride-activated polystyrene plate (Pierce, Ill., USA) was coated with 50 μl of HC peptide (200 μM in distilled water) by chemical coupling for 3 h at room temperature (RT) and washed three times with phosphate buffered saline (PBS) containing 0.05% tween 20 (PBST). The plate was blocked with blocking buffer (0.5% gelatin in PBS) for 1 h at RT. After discarding blocking buffer, biotinylated BACE1 substrates (200 μM) in blocking buffer was applied on the plate and incubated for 2.5 h at RT. Each well was washed three times with PBST. The bound biotinylated BACE1 substrates were detected by incubation with streptavidin-horseradish peroxidase (Str-HRP, 125 mU/ml in blocking buffer) for 2 h at RT. Color reaction was carried out with 50 μl of 3,3′,5,5′-Tetramethylbenzidine Liquid Substrate (Sigma-Aldrich, Mo., USA). After stopping the reaction by addition of an equal volume of 1 N HCl, absorbance at 450 nm was read in an automated ELISA reader (EL 312e, Bio-Tek Instruments, VT, USA). All assays were carried out in duplicate.

For experiment [3], the target named is T2, biotin-labeled Substrate M. Kind of experiment: plate assay: HC peptide chemically coupled to plate, bio-Sub M, Str-HRP, A450 (Table 2). The method, then: as §1
Experiment [4] deals with T3, biotin-labeled Substrate W.
T3 construct: also called bio-Sub W; N-terminally biotinylated Substrate W
T3 peptide: Biotin-SEVKMDAEFR
Kind of experiment: plate assay: complementary peptide immobilised, biotinylated substrate, streptavidin-HRP.

Experiment [5] deals with T3, biotin-labeled Substrate W. Kind of experiment: plate assay: HC peptide chemically coupled to plate, bio-Sub W, Str-HRP (FIG. 27). As for the experimental part:
as §1

In experiment [6] the target is T2, biotin-labeled Substrate M. Kind of experiment: plate assay: complementary peptide immobilised, biotinylated substrate, streptavidin-HRP.
Experiment [7] has as its target T4, recombinant human β-secretase (rhBACE1) (human, UniProt P56817 22-457, limits assumed).
T4 construct: Bought
Kind of experiment: ELISA, c-Sub M immobilised.

Experiment [8] has as its target T5, Sub-ST6Gal1 (non-labelled).
T5 peptide: DYEALTLQAKEFQMPKSQE
Kind of experiment: cell-based or functional assay.

Experiment [9] deals with T6, Substrate M (decamer containing the β-secretase cleavage site of Swedish mutant APP), non-labelled.
T6 peptide: SEVNLDAEFR
Kind of experiment: cell-based or functional assay.

T4 sequence (P56817 22-457 limits assumed): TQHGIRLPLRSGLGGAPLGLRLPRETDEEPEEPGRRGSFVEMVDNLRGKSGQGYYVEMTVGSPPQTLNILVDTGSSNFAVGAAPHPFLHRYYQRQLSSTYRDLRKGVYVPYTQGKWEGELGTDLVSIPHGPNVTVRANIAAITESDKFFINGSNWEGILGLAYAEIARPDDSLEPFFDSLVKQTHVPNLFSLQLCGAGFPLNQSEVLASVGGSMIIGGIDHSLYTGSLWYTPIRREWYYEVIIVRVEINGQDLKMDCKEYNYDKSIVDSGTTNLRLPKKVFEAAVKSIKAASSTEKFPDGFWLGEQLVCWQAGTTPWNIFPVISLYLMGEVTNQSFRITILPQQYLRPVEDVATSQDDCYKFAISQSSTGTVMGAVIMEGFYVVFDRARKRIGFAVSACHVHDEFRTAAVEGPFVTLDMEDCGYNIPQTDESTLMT

Regarding SEFCIQIH-NH2 [c-Sub M ΔC2 (SEFCIQIH)], the “percent inhibition of f-Sub M cleavage by rhBACE1 (peptide 1 mM, f-Sub M 10 µM)” value in [1] turned out to be 44%.

B1: Sub W-c (RLHFYLRLKA) (peptide)
peptide: RLHFYLRLKA-NH2
notes: Complementary peptide of Sub W read 3'->5'
With B1, the binding result in [2] is “binds”.

Turning to SEFCIQ-NH2 [c-Sub M ΔC4 (SEFCIQ)], the “percent inhibition of f-Sub M cleavage by rhBACE1 (peptide 1 mM, f-Sub M 10 µM)” value in [1] is > 90%.

For the molecule SEFCIQIHF-NH2 (also called c-SubM CΔ1) [c-Sub M ΔC1 (SEFCIQIHF)], in experiment [3], the binding result is given as “binds”. The “percent inhibition of f-Sub M cleavage by rhBACE1 (peptide 1 mM, f-Sub M 10 µM)” value in experiment [1] was 90%.

B2: c-Sub W (SEFCIHLHFR) (peptide)
peptide: SEFCIHLHFR-NH2
notes: Hydropathic complementary peptide designed from the antisense strand of Sub W, read 5'->3'
Regarding B2, the binding result in experiment [4] and in experiment [2] was “binds” throughout.

With SEFCI-NH2 [c-Sub M ΔC5 (SEFCI)], the “percent inhibition of f-Sub M cleavage by rhBACE1 (peptide 1 mM, f-Sub M 10 µM)” value in [1] was > 90%.

Consider SEFCIQI-NH2 [c-Sub M ΔC3 (SEFCIQI)], for which the “percent inhibition of f-Sub M cleavage by rhBACE1 (peptide 1 mM, f-Sub M 10 µM)” value in experiment [1] was > 90%.

Regarding CIQIHF-NH2 (also called c-Sub MΔC1N3; c-Sub ΔN3C1) [c-Sub M ΔN3C1 (CIQIHF)], in experiment [5], the binding result was “binds”. Further, the “inhibitory activity relative to c-Sub M ΔN1C1 (FRET, f-Sub M 10 µM)” value in experiment [1] is ~0.1 fold.

B3: c-Sub M (SEFCIQIHFR) (peptide)
peptide: SEFCIQIHFR-NH2
notes: Hydropathic complementary peptide designed from the antisense strand of Sub M, read 5'->3'; also called HC peptide c-Sub M
For the molecule B3, the “fold binding to Sub W relative to c-Sub W” value in [5] turned out to be 4 fold. Besides, in experiment [6], the binding result was “binds”. Moreover, in experiment [1], the “percent inhibition of f-Sub M cleavage by rhBACE1 (FRET), peptide 100 fold over substrate” value was ~50% and the “percent inhibition of f-Sub M cleavage by rhBACE1 (peptide 1 mM, f-Sub M 10 µM)” value stood at 45%. Also, the binding result in experiment [7] is “no binding”.

Turning to FCIQIHF-NH2 [c-Sub M ΔN2C1 (FCIQIHF)], the binding result in [5] is “binds”. The entries for the “percent of substrate cleavage by β-secretase blocked (HPLC), 25-fold inhibitor” value in experiment [8] and in experiment [9] were 25% and ~60%, respectively.

B4: c-Sub M ΔN1C1 (EFCIQIHF) (peptide)
peptide: EFCIQIHF-NH2
notes: also called one amino acid deletion from N-terminal of c-Sub M ΔC1
For B4, in [5], the “fold binding to Sub W relative to c-Sub W” value was 2.5 fold. Besides, the “IC50 of inhibition of f-Sub M (10 µM) cleavage by rhBACE1 (FRET)” value in [1] came to 15 µM. In experiment [8], the “percent inhibition of substrate cleavage by rhBACE1 (HPLC), inhibitor/substrate ratio 20” value is 40% and the “percent inhibition of substrate cleavage by rhBACE1 (HPLC), inhibitor/substrate ratio up to 10” value was ~10%. Further, in experiment [9], the “percent inhibition of substrate cleavage by rhBACE1 (HPLC), inhibitor/substrate ratio 20” value amounted to 100% and the “percent inhibition of substrate cleavage by rhBACE1 (HPLC), inhibitor/substrate ratio up to 10” value was 60%.
